Measured values taken from paper PMC12432404.

Biological target: α‐synuclein (UniProt P37840)

Sequence of DNAJB1 (P25685 whole entry): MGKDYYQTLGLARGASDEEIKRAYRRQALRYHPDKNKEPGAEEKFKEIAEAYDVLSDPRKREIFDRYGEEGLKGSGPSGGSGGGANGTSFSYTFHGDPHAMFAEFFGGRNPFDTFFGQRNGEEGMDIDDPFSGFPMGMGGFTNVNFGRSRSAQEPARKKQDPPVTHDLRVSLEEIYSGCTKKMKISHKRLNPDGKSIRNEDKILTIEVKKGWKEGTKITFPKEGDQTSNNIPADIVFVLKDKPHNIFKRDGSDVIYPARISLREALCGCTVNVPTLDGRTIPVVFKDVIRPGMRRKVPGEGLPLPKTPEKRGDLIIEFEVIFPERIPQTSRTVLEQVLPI
Sequence of HspA8 (P11142 whole entry): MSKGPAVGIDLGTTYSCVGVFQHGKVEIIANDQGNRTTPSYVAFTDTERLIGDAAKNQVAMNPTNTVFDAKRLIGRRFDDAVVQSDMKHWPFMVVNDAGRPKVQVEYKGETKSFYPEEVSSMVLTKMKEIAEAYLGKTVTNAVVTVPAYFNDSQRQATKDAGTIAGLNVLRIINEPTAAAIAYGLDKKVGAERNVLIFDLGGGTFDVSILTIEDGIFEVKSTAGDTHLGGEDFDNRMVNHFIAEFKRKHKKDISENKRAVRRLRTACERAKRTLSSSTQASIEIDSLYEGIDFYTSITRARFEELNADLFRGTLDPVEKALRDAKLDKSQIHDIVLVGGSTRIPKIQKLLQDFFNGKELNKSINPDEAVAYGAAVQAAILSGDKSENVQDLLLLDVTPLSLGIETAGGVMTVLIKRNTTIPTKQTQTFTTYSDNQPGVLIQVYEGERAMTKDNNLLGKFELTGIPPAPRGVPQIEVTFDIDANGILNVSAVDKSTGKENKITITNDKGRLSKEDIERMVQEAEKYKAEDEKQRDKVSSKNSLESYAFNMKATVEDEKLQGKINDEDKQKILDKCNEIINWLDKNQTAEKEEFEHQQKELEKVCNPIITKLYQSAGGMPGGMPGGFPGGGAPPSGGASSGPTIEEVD

| Thioflavin‐T fluorescence: elongation of α‐synuclein seeds (2 μM) by monomeric α‐synuclein (0–20 μM) with and without the Hsp70 chaperones (2 μM HspA8, 1 μM DNAJB1, 0.2 μM Hsp110), 30°C | Substance |
| --- | --- |
| 3 fold | DNAJB1 (from UniProt P25685 1-340) (natural protein) |
| 3 fold | HspA8 (from UniProt P11142 1-646) (natural protein) |
